The source of these data is publication PMC4188261.

As usually defined, the pKd is −log10 of the Kd, conventionally taken in molar units.

For the assay, the target named is Burkholderia mallei BmaI1 acyl-homoserine lactone synthase (Burkholderia mallei ATCC23344). The experiment in a line: steady-state enzyme kinetics.

pKd: −log10 of the molar value.

Substance “octanoyl-acyl carrier protein (E. coli ACP) (from UniProt P0A6A8 1-78) (natural protein)” showed a pKd of 6.90.
